Test results taken from publication doi:10.1101/2022.06.14.496074 (bioRxiv, 2022).

Assays:
[1] = target: T1, AcrA (E. coli (K12 derived strain)), P0AE06; assay: SEC; details: remark: other sources report otherwise
T1 chain: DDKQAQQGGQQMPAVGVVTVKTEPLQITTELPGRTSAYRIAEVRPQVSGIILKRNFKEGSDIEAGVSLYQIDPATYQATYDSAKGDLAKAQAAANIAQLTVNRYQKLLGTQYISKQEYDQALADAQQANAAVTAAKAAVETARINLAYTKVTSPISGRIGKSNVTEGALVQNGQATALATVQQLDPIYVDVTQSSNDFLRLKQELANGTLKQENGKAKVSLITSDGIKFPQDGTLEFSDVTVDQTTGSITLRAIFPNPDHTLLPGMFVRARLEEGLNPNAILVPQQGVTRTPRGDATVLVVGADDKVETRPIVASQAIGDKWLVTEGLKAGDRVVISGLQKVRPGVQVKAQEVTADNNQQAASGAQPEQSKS

[2] = target: T2, TolC (E. coli, UniProt P02930 23-493); assay: single-channel electrophysiology
T2 sequence: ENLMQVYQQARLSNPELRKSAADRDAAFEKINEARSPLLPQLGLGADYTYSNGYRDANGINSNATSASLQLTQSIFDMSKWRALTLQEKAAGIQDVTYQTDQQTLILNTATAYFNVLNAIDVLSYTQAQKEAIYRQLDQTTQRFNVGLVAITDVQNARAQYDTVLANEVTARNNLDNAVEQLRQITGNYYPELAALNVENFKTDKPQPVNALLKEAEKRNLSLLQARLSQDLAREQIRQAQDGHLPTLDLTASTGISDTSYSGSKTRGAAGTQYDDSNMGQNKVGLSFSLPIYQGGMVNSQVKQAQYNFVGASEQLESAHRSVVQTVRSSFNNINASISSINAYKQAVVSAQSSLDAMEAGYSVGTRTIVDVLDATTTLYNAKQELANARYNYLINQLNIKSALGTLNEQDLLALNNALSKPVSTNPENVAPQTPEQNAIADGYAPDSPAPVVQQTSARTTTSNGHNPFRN

B1: AcrA (natural protein)
chain: T1 chain
[1]
  stoichiometry N: 2
[2]
  binding result: binds
